B1: 9-mer GO:C duplex (dsDNA)
DNA 1: TTTGTTTCT
DNA 2: AGAAACAAA
modifications: 8-oxoguanine at position 4 (opposite C6*)
B2: 9-mer trapped AP strand with 9-mer T (dsDNA)
DNA 1: TTTGTTTCT
DNA 2: AGAAATAAA
modifications: ring-open AP site from GO, borohydride-trapped, opposite T
B3: 9-mer trapped AP strand with 9-mer A (dsDNA)
DNA 1: TTTGTTTCT
DNA 2: AGAAAAAAA
modifications: ring-open AP site from GO, borohydride-trapped, opposite A

Columns and labels:
[1] = biological target: T1, Pab-AGOG K142Q (Pyrococcus abyssi, UniProt Q9UZY0 1-239, K142Q); assay: X-ray structure; non-covalent, 1.25 A; EMSA: 0.1 nM 32P-DNA, 20 mM HEPES/NaOH pH 7.6, 100 mM NaCl, 10% glycerol, 0.1% BSA, 30 min at 4 C; 10% native PAGE at 4 C; settings: protein: recombinant; tags: N-terminal 6xHis (pET28a), removed by trypsin (as for WT)
T1 sequence: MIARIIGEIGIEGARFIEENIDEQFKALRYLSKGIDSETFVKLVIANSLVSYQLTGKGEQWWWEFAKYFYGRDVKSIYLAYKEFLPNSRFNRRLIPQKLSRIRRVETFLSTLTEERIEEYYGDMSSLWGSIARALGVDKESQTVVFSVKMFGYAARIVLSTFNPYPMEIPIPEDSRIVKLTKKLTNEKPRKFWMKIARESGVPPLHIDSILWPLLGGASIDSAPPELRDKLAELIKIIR

[2] = biological target: T2, Pab-AGOG WT (Pyrococcus abyssi, UniProt Q9UZY0 1-239); assay: X-ray structure; NaBH4-trapped covalent at K142; EMSA: 0.1 nM 32P-DNA, 20 mM HEPES/NaOH pH 7.6, 100 mM NaCl, 10% glycerol, 0.1% BSA, 30 min at 4 C; 10% native PAGE at 4 C; settings: protein: recombinant; tags: N-terminal 6xHis (pET28a), removed by trypsin at thrombin site
T2 sequence: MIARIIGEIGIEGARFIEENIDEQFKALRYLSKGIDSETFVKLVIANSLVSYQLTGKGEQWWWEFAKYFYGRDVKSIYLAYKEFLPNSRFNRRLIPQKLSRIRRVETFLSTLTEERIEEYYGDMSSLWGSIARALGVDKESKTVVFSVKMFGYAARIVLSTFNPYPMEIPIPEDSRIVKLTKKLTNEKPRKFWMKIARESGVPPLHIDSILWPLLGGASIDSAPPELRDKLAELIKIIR

Row | Binder | binding result [1] | binding result [2]
1 | B1 | binds | –
2 | B2 | – | binds
3 | B3 | – | binds

Reference: paper PMC9638937, “Structural and functional determinants of the archaeal 8-oxoguanine-DNA glycosylase AGOG for DNA damage recognition and processing”
